What all share (assay type): cell-based
In experiment [1] the target is T1, Kit (Homo sapiens, UniProt P10721).
T1 construct: M07e cells are known to express both Kit and IL-4R; host or cells: M07e (human megakaryoblastic cell line)
The experiment is described as follows: KL stimulation of M07e cells; phosphorylation of Kit. To be noted: 250 ng/ml recombinant human KL. The method, then:
(§1) Cell culture. M07e cells (DSMZ, Braunschweig, Germany) were cultured in RPMI-1640 (Invitrogen/Gibco, Carlsbad, Calif.) with 10% fetal calf serum (FCS; Omega Scientific, Tarzana, Calif.) in the presence of human IL-3 (20 ng/ml; Biosource, Camarillo, Calif.) and human IL-4 (20 ng/ml; R&D Systems Inc, Minneapolis, Minn.). For stimulation of Kit with Kit ligand (KL), M07e cells were growth factor—as well as serum-deprived for 12 hours prior to stimulation with 250 ng/ml of recombinant human KL (Biosource, Camarillo, Calif.).
(§2) Immunoprecipitation and immunoblotting. Immunoprecipitation and immunoblotting were performed as reported previously (Mani, M. et al. Blood 114, 2900-2908 (2009)). Following stimulation with KL, cells were collected in ice-cold PBS containing 1 mM sodium ortho-vanadate (Sigma, St. Louis, Mo.), resuspended at a density of 1×10^7-2×10^7 cells/ml in lysis buffer containing 10 mM Tris-HCl (pH7.4), 150 mM NaCl, 20 mM sodium phosphate (pH7.4), 10 mM sodium pyrophosphate (pH7.4), 5 mM EDTA, 1 mM sodium ortho-vanadate, 1 mM glycerophosphate (Sigma) and 1% Triton X-100, and lysed. Protease inhibitors (Complete Protease Inhibitor Cocktail, Roche, Indianapolis, Ind.) were added according to manufacturer's recommendations. Post-nuclear supernatants were subjected to one round of pre-clearing with Protein A Sepharose (Amersham/Pharmacia, Piscataway, N.J.). […]

Experiment [2] deals with IL-4R (IL-4Rα and γc subunits). The experiment is described as follows: KL stimulation of M07e cells; immunoprecipitation of IL-4R subunits and phosphotyrosine immunoblotting. To be noted: growth factor- and serum-deprived 12 hours, 250 ng/ml recombinant human KL, no IL-4. The procedure: as §1, §2
On the technique in general: Immunoblotting shows a protein as a band on a membrane.

In experiment [3] the test system is murine HSC (Lin-Sca-1+Kit+); IL-4R/STAT6. The experiment is described as follows: Intracellular phospho-STAT6 analysis (Phospho-Flow) of murine HSC after IL-4 stimulation. The settings on record: murine bone marrow Lin-Sca-1+Kit+ HSC, 1 ng/ml recombinant mouse IL-4, 15 min. An excerpt: Intracellular phospho-STAT6 analysis. Cells derived from c-Kit(BAC)-EGFP mice that are transgenic for a bacterial artificial chromosome expressing EGFP under the control of the Kit promoter were used instead of anti-Kit antibodies (Tallini, Y. N. et al. Proc Natl Acad Sci USA 106, 1808-1813 (2009)). Freshly isolated murine bone marrow mononuclear cells were suspended in cold RPMI-1640 containing 10% FBS and stained with PE-CY7 conjugated anti-mouse Sca-1 (BD Biosciences, San Jose, Calif., Cat 558162) and PE conjugated anti-mouse lineage cocktail (Biolegend, San Diego, Calif. Cat: 78035) at 4° C. for 60 min. The cells were washed with cold RPMI-1640 containing 10% FBS and resuspended in pre-warmed RPMI-1640 containing 10% FBS at concentration of 5-10 million cells/ml. Cells were transferred as 0.5 ml aliquots into flow cytometry test tubes (BD Biosciences, Falcon 2052), rested at 37° C. for 1 hr and stimulated with 1 ng/ml of recombinant mouse IL-4 (Invitrogen, Cat: PMC 0045) for 15 min. Cells were fixed by adding 25 μl of 32% paraformaldehyde (EM grade, Electron Microscopy Sciences, Hatfield, Pa., Cat: 15714) at room temperature for 10 min. […] Samples were washed (centrifugation at 1800 rpm for 5 min) once with staining buffer and analyzed on an FACS Aria II (BD Biosciences). The results were analyzed using Flow Jo software.

“Also recorded” adds a separate entry of the source.

T1 sequence (P10721 26-976): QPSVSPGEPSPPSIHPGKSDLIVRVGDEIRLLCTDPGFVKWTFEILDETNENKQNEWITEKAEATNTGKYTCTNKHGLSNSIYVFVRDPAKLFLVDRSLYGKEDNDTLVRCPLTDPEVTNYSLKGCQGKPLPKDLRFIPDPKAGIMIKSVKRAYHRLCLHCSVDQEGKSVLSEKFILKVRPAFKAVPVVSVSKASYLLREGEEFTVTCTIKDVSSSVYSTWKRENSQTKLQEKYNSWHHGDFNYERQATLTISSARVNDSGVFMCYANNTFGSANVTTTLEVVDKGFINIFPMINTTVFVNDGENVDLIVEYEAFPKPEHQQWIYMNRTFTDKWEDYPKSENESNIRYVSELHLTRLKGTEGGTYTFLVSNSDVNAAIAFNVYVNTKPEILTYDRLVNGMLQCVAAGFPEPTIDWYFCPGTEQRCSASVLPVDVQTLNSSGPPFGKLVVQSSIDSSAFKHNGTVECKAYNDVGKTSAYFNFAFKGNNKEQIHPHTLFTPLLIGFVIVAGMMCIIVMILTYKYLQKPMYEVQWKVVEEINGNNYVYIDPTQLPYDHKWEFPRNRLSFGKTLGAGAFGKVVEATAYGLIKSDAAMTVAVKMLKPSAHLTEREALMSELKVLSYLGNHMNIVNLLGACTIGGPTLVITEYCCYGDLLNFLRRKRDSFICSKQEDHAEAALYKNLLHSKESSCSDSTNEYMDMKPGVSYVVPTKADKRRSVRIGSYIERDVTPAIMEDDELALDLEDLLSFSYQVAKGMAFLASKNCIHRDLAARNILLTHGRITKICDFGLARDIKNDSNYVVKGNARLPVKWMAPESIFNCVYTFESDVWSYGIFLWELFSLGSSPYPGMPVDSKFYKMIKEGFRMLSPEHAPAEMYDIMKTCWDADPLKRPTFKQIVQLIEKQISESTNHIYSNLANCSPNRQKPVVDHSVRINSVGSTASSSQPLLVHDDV

For the molecule “KL: recombinant human Kit ligand (Biosource), ligand of the Kit receptor, used to stimulate M07e cells”, the “phosphorylation of Kit after KL stimulation” value in experiment [1] is “rapid phosphorylation of Kit”. In addition, the “time to tyrosine phosphorylation of IL-4Rα and γc subunits of IL-4R after KL treatment” value in experiment [2] is at most 5 min.

B1: IL-4: recombinant mouse interleukin 4 (Invitrogen), cognate ligand of IL-4R, used to stimulate murine HSC (protein)
chain: HIHGCDKNHLREIIGILNEVTGEGTPCTEMDVPNVLTATKNTTESELVCRASKVLRIFYLKHGKTPCLKKNSSVLMELQRLFRAFRCLDSSISCTMNESKSTSLKDFLESLKSIMQMDYS
Consider B1, for which the “STAT6 phosphorylation in response to IL-4 stimulation” value in experiment [3] was “STAT6 phosphorylation was observed; also recorded: STATE phosphorylation”.

The values are drawn from patent US20120076797A1, “Modulation of kit signaling and hematopoietic cell development by IL-4 receptor modulation” (priority 2010, published 2012).
